Data: publication PMC5468325
Blank lines part the entries; values can stand above or below the substance they belong to.

Assays:
RXFP2(1-65) P4F (human) = experiment: NMR titration; 2D 1H-15N HSQC; increasing concentrations of titrant against 50 µM 15N-labelled RXFP2(1-65) P4F; 25 °C, 50 mM imidazole, 10 mM CaCl2, pH 6.8
[1] = target: RXFP1 LDLa-linker (human); experiment: NMR titration; RXFP1 LDLa-linker titrated with truncated relaxin (Supp Fig. 5)
RXFP2 T44A (human) [2] = target: RXFP2 T44A (human)
RXFP2-F51A (human) [3] = target: RXFP2-F51A (human)
RXFP2-G42A (human) [4] = target: RXFP2-G42A (human)
[5] = target: Relaxin family peptide receptor 2 (RXFP2), wild type (human) (UniProt Q8WXD0)
RXFP2 S45A (human) [6] = target: RXFP2 S45A (human)
[7] = target: Relaxin family peptide receptor 2 (RXFP2), wild type (human) (UniProt Q8WXD0); experiment: europium-labelled ligand saturation binding on whole cells (time-resolved fluorescence); HEK293T cells transiently transfected with receptor; increasing concentrations of Eu-INSL3 or Eu-H2 relaxin with or without 1 µM unlabeled ligand, 1 h incubation; one-site binding curves
RXFP2 W47A (human) = experiment: as above
RXFP2 T44A (human) [8] = experiment: as above
RXFP2-F51A (human) [9] = experiment: as above
RXFP2-G42A (human) [10] = experiment: as above
RXFP2 D43A (human) = experiment: as above
RXFP2-G46A (human) = experiment: as above
RXFP2 S45A (human) [11] = experiment: as above

Chain of UniProt Q8WXD0 (Q8WXD0 whole entry): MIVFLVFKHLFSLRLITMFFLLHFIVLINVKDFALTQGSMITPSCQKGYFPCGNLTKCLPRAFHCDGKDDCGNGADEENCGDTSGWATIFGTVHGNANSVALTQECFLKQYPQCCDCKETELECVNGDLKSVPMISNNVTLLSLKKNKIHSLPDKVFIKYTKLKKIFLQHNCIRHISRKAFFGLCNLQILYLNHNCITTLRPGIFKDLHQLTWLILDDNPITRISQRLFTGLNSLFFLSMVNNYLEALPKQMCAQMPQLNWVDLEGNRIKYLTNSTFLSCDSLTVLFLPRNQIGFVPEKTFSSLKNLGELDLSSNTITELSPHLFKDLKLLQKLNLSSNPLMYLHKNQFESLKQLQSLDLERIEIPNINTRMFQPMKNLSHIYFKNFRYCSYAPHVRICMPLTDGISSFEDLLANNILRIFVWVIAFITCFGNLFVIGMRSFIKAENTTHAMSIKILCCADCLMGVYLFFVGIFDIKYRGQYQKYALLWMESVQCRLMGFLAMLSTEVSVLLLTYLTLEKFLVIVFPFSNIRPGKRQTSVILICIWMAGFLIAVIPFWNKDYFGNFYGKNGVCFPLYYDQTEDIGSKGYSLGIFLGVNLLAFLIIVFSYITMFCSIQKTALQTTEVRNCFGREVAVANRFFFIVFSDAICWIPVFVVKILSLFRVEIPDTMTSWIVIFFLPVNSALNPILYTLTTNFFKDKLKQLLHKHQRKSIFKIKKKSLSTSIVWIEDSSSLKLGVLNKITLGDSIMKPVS

- Kd (RXFP2(1-65) P4F (human)): 330000 nM
- Kd [1]: 90000 nM
Substance: B5-29 [B-K9R,A-K9/17R] H2 relaxin (ligand)

- Emax: maximal cAMP response (pCRE beta-galactosidase reporter, HEK293T) to unlabelled H2 relaxin, max value based on 1 µM activation (RXFP2 T44A (human) [2]): 53%
- pEC50 of the cAMP response (pCRE beta-galactosidase reporter, HEK293T) to unlabelled H2 relaxin (RXFP2 T44A (human) [2]): 8.63
- Emax: maximal cAMP response (pCRE beta-galactosidase reporter, HEK293T) to unlabelled H2 relaxin, max value based on 1 µM activation (RXFP2-F51A (human) [3]): 18.8%
- pEC50 of the cAMP response (pCRE beta-galactosidase reporter, HEK293T) to unlabelled H2 relaxin (RXFP2-F51A (human) [3]): < 6
- Emax: maximal cAMP response (pCRE beta-galactosidase reporter, HEK293T) to unlabelled H2 relaxin, max value based on 1 µM activation (RXFP2-G42A (human) [4]): 75.2%
- pEC50 of the cAMP response (pCRE beta-galactosidase reporter, HEK293T) to unlabelled H2 relaxin (RXFP2-G42A (human) [4]): 7.98
- Emax: maximal cAMP response (pCRE beta-galactosidase reporter, HEK293T) to unlabelled H2 relaxin, max value based on 1 µM activation [5]: 100%
- pEC50 of the cAMP response (pCRE beta-galactosidase reporter, HEK293T) to unlabelled H2 relaxin [5]: 8.45
- Emax: maximal cAMP response (pCRE beta-galactosidase reporter, HEK293T) to unlabelled H2 relaxin, max value based on 1 µM activation (RXFP2 S45A (human) [6]): 100%
- pEC50 of the cAMP response (pCRE beta-galactosidase reporter, HEK293T) to unlabelled H2 relaxin (RXFP2 S45A (human) [6]): 9.03
- Kd [7]: 9.96 nM
Substance: Europium (Eu3+)-labelled H2 relaxin (ligand)

- Emax: maximal cAMP response (pCRE beta-galactosidase reporter, HEK293T) to unlabelled INSL3 (% maximal RXFP2 activity) (RXFP2 T44A (human) [2]): 98.7
- pEC50 of the cAMP response (pCRE beta-galactosidase reporter, HEK293T) to unlabelled INSL3 (RXFP2 T44A (human) [2]): 10.5
- Emax: maximal cAMP response (pCRE beta-galactosidase reporter, HEK293T) to unlabelled INSL3 (% maximal RXFP2 activity) (RXFP2-F51A (human) [3]): 39.8
- pEC50 of the cAMP response (pCRE beta-galactosidase reporter, HEK293T) to unlabelled INSL3 (RXFP2-F51A (human) [3]): 9.36
- Emax: maximal cAMP response (pCRE beta-galactosidase reporter, HEK293T) to unlabelled INSL3 (% maximal RXFP2 activity) (RXFP2-G42A (human) [4]): 39.5
- pEC50 of the cAMP response (pCRE beta-galactosidase reporter, HEK293T) to unlabelled INSL3 (RXFP2-G42A (human) [4]): 8.98
- Emax: maximal cAMP response (pCRE beta-galactosidase reporter, HEK293T) to unlabelled INSL3 (% maximal RXFP2 activity) [5]: 100
- pEC50 of the cAMP response (pCRE beta-galactosidase reporter, HEK293T) to unlabelled INSL3 [5]: 9.99
- Emax: maximal cAMP response (pCRE beta-galactosidase reporter, HEK293T) to unlabelled INSL3 (% maximal RXFP2 activity) (RXFP2 S45A (human) [6]): 92.2
- pEC50 of the cAMP response (pCRE beta-galactosidase reporter, HEK293T) to unlabelled INSL3 (RXFP2 S45A (human) [6]): 10.1
- Kd (RXFP2 W47A (human)): 1.5 nM
- Kd (RXFP2 T44A (human) [8]): 2.11 nM
- Kd (RXFP2-F51A (human) [9]): 1.55 nM
- Kd (RXFP2-G42A (human) [10]): 1.93 nM
- Kd [7]: 1.07 nM
- Kd (RXFP2 D43A (human)): 1.18 nM
- Kd (RXFP2-G46A (human)): 1.51 nM
- Kd (RXFP2 S45A (human) [11]): 1.05 nM
Substance: Europium (Eu3+)-labelled INSL3 (ligand)
